Experimental findings from paper PMC4357730 are described below.

The subject of one data set is hTDG-N140A (human). In words: AFM. The settings on record: AFM: 25 mM HEPES pH 7.5, 25 mM Na acetate, 10 mM Mg acetate, RT, 2-AP hTDG: 20 mM HEPES pH 7.0, 0.2 mM EDTA, 2.5 mM MgCl2, 100 mM NaCl, 25 C, 2-AP hOGG1: 50 mM …, scale: specificity S.
For another data set, the target named is hTDG-R275A R275A (human) (UniProt Q13569). In words: AFM. Particulars: dUF at insert position 9 opposite G (non-cleavable G:U analog); AFM: 25 mM HEPES pH 7.5, 25 mM Na acetate, 10 mM Mg acetate, RT; 2-AP hTDG: 20 mM HEPES pH 7.0, 0.2 mM EDTA, 2.5 mM MgCl2, 100 mM NaCl, 25 C; 2-AP hOGG1: 50 mM …; scale: specificity S.
Sequence of hTDG-R275A R275A (human) (Q13569 whole entry R275A): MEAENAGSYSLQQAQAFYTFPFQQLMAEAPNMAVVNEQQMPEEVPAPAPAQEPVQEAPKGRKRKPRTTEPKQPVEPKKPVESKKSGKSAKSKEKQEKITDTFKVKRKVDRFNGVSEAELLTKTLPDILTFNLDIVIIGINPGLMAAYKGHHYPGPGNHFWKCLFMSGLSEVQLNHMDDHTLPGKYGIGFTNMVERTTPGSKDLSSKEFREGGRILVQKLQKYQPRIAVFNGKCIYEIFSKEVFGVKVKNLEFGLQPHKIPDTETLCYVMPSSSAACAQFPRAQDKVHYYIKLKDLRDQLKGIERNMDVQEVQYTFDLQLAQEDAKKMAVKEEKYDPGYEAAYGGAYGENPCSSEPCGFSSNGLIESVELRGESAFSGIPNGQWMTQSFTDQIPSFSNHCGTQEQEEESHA

549 bp G:U DNA returned a binding signal with hTDG-N140A (human) (dU at insert position 9 opposite G) of 163.
Substance 549 bp G:T DNA gave a binding signal in the data set with hTDG-N140A (human) of 305.
In the case of 549 bp G:UF DNA, the binding signal with hTDG-R275A R275A (human) was 358.
